In patent US20160158332A1 (US Dept. of Health and Human Services, published 2016):
Ends that are not written are not given here.

Molecular target: T1, recombinant EcPyAMA1 (P. yoelii YM AMA1 residues 59-479 with a C-terminal histidine tag, E. coli, refolded) (Plasmodium yoelii YM)
T1 construct: not shown: C-terminal histidine tag
T1 chain: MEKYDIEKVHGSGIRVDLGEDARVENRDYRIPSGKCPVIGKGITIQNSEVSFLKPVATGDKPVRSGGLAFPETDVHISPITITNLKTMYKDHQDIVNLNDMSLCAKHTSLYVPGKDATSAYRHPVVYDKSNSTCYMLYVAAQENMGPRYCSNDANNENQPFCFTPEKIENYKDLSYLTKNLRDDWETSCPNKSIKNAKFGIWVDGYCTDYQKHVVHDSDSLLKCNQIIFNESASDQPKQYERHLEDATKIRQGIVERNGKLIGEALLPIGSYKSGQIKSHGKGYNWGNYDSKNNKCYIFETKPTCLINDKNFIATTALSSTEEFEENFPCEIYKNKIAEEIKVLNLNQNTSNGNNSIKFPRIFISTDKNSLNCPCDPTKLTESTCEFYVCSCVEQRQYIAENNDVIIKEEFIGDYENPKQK
Experiment: binding of RON2L peptide to PyAMA1, FIG. 3E

B1: PyRON2L peptide with the two cysteines mutated to alanines (Cys 1856 and 1868 to Ala) (peptide)
peptide: DITQHATDIGMGPSTSAYTSLLPPPKSIAIQQTVKTVLTNSTLASMK-NH2
notes: they are the two cysteines of the peptide; also called RON2Lc/a; c/a
- binding result: no binding
